Measurements published in patent publication US8173771B2, “Humanin receptor or humanin-like polypeptide receptor” (Keio Univeristy, priority 2005, dated 2012).
Peptide text beside a SMILES is read from it.

What was measured:
STAT3 = assay: Immunoblot of phosphotyrosine 705 of STAT3 in F11 cells; assay type: cell-based
Description: E) F11 cells were transfected with an indicated amount of pRNA-U6.1/Shuttle vector (empty), pRNA-U6.1/Shuttle-IL-6R siRNA, or pRNA-U6.1/Shuttle-LIFR siRNA. At 48 hrs after transfection, the cells were treated with 100 ng/ml IL-6, 100 ng/ml CNTF or 1 μM HNG at 37° for 15 min, and harvested. The results of immunoblot analysis using anti-phophoSTAT3 ([…]) antibody and anti-STAT3 antibody were shown in photos. A) F11 cells were added with an indicated amount of HN, HNG or HNA and harvested 15 min later for immunoblot analysis with antibodies recognizing phosphotyrosine 705 of STAT3 or STAT3. The results are shown in photos. B) F11 cells were transfected with 0.5 μg of pRNA-U1.6/Shuttle vector, pRNA-U6.1/Shuttle-WSX-1 siRNA, pRNA-U6.1/Shuttle-CNTF-R siRNA, both pRNA-U6.1/Shuttle-WSX-1 siRNA and pRNA-U6.1/Shuttle-CNTF-R siRNA (0.5 μg each), or pRNA-U6.1/Shuttle-FPR2 siRNA. The total amount of vectors was adjusted to be 1.0 μg by including a backbone vector. […] The results are shown in photos. Cell lysates (10-20 μg/lane) or pulled-down precipitates were subject to SDS-PAGE, and the proteins separated on the gel were transferred onto polyvinylidene difluoride membranes as described (Hashimoto et al, 2000). Visualization of the immunoreactive protein bands was performed by ECL (Amersham Pharmacia Biotech, Uppsala, Sweden).

CNTF receptor = molecular target: T1, CNTF receptor (Homo sapiens, UniProt P26992); assay: In vitro pull-down assay with HN- or HNA-conjugated Sepharose 4B; assay type: binding; conditions: lysates of F11 cells overexpressing CNTF-R
T1 construct: V5 (C); host or cells: F11 cells (lysate)
T1 sequence (P26992 23-342): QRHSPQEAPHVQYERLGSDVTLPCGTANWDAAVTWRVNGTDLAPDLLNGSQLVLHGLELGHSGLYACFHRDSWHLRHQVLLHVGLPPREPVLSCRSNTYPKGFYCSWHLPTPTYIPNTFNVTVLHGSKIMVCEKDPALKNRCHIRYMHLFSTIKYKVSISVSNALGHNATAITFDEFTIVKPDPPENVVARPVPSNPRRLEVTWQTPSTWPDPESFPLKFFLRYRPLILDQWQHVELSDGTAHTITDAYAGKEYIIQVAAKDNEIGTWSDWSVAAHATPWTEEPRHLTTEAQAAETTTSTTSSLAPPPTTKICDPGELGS
From the text: (§1) C) The photos show the results of in vitro pull down assay using HN- or HNA-conjugated Sepharose 4B bead. WSX-1, CNTF-R, and […] were over-expressed in F11 cells and the pull down assay was made using the above 4B bead. Immunoblot analysis was done using PO4 antibody against Humanin (lower panes). HN or HNA comprised in the above Sepharose 4B bead was compared with synthesized HN peptide (50 pmol) as a positive control.
(§2) F11 cells (7×10^4/well in 6-well plates) were transfected with the plasmids encoding mycHis-WSX-1, V5-CNTF-R or rat IL-6R (V6 tagged). At 48 hrs after transfection, the cells were harvested for pull-down assays with HN or HNA-conjugated Sepharose 4B. For conjugation of […] or HNA with Sepharose 4B, 3 ml of CNBr-activated Sepharose 4B was incubated with 0.5 mg of HN or HNA in a coupling buffer (0.1M NaHCO3 0.5M NaCl, pH8.3) overnight at 4° C. The beads were then reacted with a blocking buffer (0.2M glycine, pH 8.0) for 2 hrs at a room temperature, washed with the coupling buffer and stored at 4° C. for use in pull-down assay. For each pull-down assay, 20 μl of 1:1 slurry of Sepharose was used for 100 μl of the cell lysate.

IL-6 receptor = molecular target: T2, IL-6 receptor (Rattus norvegicus, UniProt P22273); assay: as above; assay type: binding; conditions: lysates of F11 cells overexpressing IL-6R
T2 construct: V6 (so in the source); probably V5); host or cells: F11 cells (lysate)
T2 sequence (P22273 20-462): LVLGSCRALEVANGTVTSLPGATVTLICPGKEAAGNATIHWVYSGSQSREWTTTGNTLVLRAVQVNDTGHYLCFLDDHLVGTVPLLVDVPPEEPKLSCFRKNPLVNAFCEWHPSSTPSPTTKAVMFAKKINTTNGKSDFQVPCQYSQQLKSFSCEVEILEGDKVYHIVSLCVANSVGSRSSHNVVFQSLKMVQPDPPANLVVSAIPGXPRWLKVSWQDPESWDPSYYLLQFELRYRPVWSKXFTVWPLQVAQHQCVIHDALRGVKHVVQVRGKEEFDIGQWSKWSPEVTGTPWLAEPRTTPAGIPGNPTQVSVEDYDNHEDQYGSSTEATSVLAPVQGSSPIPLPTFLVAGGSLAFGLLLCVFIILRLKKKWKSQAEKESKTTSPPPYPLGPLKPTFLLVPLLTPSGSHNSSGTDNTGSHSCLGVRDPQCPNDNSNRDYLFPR
From the text: as §1, §2

WSX-1 = molecular target: T3, WSX-1 (Homo sapiens, UniProt Q6UWB1); assay: as above; assay type: binding; conditions: lysates of F11 cells overexpressing WSX-1
T3 construct: His; expressed in transfected cells; host or cells: F11 cells (lysate)
T3 sequence (Q6UWB1 33-636): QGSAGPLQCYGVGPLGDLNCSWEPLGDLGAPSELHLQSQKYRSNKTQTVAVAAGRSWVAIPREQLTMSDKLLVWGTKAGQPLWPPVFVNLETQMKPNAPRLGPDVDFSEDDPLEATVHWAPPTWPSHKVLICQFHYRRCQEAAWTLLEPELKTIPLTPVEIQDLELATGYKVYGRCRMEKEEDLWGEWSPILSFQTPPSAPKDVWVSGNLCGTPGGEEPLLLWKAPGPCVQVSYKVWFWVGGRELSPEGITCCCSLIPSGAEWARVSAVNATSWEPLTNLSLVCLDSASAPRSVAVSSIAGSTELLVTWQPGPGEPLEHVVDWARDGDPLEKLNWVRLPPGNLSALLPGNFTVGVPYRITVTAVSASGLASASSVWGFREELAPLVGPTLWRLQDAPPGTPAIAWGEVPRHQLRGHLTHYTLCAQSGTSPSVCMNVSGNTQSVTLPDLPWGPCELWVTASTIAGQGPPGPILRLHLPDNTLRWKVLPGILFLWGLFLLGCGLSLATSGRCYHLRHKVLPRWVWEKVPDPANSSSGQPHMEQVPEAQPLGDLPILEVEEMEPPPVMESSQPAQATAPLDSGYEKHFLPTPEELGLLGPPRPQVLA
From the text: as §1, §2

Row | binding in pull-down to CNTF receptor (CNTF receptor) | binding in pull-down to IL-6 receptor (IL-6 receptor) | binding in pull-down to WSX-1 (WSX-1) | Compound | phosphorylation of tyrosine 705 of STAT3 (STAT3; F11 cells, 15 min) | phosphorylation of tyrosine 705 of STAT3 (STAT3; decrease of expression of endogenous CNTF-R or WSX-1 by siRNA)
1 | – | – | – | CC[C@H](C)[C@H](NC(=O)[C@H](CCC(=O)O)NC(=O)CNC(=O)[C@@H](NC(=O)[C@H](CC(C)C)NC(=O)[C@H](CC(C)C)NC(=O)[C@H](CC(C)C)NC(=O)[C@H](CC(C)C)NC(=O)[C@H](CS)NC(=O)[C@H](CO)NC(=O)[C@H](Cc1ccccc1)NC(=O)CNC(=O)[C@H](CCCNC(=N)N)NC(=O)[C@@H]1CCCN1C(=O)[C@H](C)NC(=O)[C@@H](N)CCSC)[C@@H](C)O)C(=O)N[C@@H](CC(=O)O)C(=O)N[C@@H](CC(C)C)C(=O)N1CCC[C@H]1C(=O)N[C@H](C(=O)N[C@@H](CCCCN)C(=O)N[C@@H](CCCNC(=N)N)C(=O)N[C@@H](CCCNC(=N)N)C(=O)N[C@@H](C)C(=O)O)C(C)C [HNG, S14 G-Humanin] (H-MAPRGFSCLLLLTGEIDLPVKRRA-OH; N-terminus and C-terminus assumed) | increased | almost completely inhibited
2 | did not bind | did not bind | did not bind | C8A-Humanin (MAPRGFSALLLLTSEIDLPVKRRA) [HNA] | – | –
